Reference: the supplement of paper PMC10065799, “High-throughput profiling of sequence recognition by tyrosine kinases and SH2 domains using bacterial peptide display” (eLife, 2023)

Legend:
AncSZ = experiment: phosphorylation enrichment, bacterial display (enrichment ratio); higher = better substrate or ligand; peptides without Tyr show the background
EPHB1 = EPHB1 (UniProt P54762); experiment: as above
EPHB2 = EPHB2 (UniProt P29323); experiment: as above
FGFR1 = FGFR1 (UniProt P11362); experiment: as above
FGFR3 = FGFR3 (UniProt P22607); experiment: as above
Fer (mouse) = experiment: as above
Fes = Fes (UniProt P07332); experiment: as above
Fyn = Fyn (UniProt P06241); experiment: as above
Hck = Hck (UniProt P08631); experiment: as above
Jak2 = Jak2 (UniProt O60674); experiment: as above
MERTK = MERTK (UniProt Q12866); experiment: as above
c-Abl (mouse) = experiment: as above
c-Src = experiment: as above
Grb2 SH2 = Grb2 SH2 (UniProt P62993); experiment: SH2 binding enrichment of the phosphorylated peptide, bacterial display (enrichment ratio); higher = better substrate or ligand; peptides without Tyr show the background
SHP2-C SH2 = experiment: as above
c-Src SH2 = experiment: as above
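Wherever SH2 binding enrichment of the phosphorylated peptide, bacterial display is given: peptide library displayed on the E. coli surface as eCPX fusions, selected cells deep-sequenced, score is each peptide's frequency after selection divided by its frequency in the input.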
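Wherever phosphorylation enrichment, bacterial display is given: 11-residue human phosphosite peptides and single-mutation variants displayed on the E. coli surface, counted by deep sequencing, each peptide's frequency after selection divided by its frequency in the unselected input library; frequency after pTyr selection over input frequency; kinase dosed for 20-30% of maximal phosphorylation in three min.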

Grb2 SH2, sequence (P62993 whole entry, looked up): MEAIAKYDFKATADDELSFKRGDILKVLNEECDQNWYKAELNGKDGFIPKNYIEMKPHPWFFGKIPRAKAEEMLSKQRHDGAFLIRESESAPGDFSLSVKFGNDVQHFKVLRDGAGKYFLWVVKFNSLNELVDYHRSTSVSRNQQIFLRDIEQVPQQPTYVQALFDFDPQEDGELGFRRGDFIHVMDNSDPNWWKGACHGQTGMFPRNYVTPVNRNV
Fes, sequence (P07332 whole entry, looked up): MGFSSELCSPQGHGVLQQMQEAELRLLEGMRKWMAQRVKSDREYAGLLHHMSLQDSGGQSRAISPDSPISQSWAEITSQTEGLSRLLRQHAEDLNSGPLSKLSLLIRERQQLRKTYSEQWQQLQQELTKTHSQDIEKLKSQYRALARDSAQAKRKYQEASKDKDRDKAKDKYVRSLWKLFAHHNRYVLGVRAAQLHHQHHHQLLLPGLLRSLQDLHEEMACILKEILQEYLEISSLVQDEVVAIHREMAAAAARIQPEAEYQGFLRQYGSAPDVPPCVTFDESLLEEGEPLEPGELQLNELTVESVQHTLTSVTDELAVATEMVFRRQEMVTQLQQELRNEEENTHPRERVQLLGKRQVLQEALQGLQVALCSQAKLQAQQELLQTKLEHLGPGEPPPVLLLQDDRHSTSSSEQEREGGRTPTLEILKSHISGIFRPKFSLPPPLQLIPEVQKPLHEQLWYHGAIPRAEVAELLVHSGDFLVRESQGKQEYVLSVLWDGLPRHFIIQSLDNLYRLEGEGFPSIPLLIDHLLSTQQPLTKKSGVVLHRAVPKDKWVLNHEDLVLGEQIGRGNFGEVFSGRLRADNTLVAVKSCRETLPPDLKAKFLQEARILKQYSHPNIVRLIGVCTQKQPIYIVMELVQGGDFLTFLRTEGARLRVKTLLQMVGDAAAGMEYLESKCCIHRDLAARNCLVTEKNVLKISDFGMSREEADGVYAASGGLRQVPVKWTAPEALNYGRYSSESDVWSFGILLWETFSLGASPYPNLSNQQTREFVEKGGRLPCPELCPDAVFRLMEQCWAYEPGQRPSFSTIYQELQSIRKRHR
FGFR3, sequence (P22607 whole entry, looked up): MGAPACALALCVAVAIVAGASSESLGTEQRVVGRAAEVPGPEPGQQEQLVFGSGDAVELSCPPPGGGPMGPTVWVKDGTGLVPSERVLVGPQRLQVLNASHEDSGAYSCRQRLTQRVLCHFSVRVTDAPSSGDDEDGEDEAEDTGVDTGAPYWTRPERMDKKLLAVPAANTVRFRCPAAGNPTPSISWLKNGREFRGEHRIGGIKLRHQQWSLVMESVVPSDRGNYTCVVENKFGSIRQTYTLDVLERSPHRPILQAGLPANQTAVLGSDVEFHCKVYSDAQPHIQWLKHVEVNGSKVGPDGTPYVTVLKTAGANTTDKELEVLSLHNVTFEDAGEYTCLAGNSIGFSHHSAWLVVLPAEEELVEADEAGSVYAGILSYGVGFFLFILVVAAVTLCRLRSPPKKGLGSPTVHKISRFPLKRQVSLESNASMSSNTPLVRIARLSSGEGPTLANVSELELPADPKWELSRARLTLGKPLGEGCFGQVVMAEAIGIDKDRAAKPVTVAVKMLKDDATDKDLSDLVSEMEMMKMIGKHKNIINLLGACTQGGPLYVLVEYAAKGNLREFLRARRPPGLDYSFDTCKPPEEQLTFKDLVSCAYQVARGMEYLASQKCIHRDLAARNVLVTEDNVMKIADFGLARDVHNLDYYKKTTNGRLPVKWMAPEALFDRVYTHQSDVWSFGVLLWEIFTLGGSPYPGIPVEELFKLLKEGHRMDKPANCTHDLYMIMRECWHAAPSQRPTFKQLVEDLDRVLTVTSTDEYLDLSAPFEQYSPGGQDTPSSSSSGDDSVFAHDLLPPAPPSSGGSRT
Jak2, sequence (O60674 whole entry, looked up): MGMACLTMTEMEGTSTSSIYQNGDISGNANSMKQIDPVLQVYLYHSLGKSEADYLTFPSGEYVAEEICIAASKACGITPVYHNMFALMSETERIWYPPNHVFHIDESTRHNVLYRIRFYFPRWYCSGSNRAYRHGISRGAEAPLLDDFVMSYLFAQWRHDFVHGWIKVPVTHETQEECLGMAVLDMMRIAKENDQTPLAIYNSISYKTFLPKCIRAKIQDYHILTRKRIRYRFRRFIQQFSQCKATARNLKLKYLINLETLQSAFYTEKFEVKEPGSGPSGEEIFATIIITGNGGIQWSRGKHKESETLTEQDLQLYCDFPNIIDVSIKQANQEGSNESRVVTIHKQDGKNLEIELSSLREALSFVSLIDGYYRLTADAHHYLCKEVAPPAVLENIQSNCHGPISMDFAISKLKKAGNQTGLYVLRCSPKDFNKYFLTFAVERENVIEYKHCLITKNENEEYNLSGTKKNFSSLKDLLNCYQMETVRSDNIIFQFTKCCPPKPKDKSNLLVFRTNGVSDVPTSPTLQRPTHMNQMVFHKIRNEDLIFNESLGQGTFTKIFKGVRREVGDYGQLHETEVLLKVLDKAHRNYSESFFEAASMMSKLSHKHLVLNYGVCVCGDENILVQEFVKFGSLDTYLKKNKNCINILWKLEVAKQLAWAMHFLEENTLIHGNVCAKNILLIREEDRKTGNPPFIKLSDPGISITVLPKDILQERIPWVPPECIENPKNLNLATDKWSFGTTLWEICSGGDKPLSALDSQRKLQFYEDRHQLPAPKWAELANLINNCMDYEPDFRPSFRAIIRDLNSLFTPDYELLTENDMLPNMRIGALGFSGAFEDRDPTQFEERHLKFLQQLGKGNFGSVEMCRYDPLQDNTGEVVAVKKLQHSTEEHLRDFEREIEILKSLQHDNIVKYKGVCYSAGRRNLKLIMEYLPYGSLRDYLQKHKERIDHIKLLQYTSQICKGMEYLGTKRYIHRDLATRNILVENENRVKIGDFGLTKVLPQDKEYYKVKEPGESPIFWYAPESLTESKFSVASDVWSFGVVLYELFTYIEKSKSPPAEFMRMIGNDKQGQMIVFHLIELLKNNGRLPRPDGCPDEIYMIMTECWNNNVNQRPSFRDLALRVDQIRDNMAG
EPHB1, sequence (P54762 whole entry, looked up): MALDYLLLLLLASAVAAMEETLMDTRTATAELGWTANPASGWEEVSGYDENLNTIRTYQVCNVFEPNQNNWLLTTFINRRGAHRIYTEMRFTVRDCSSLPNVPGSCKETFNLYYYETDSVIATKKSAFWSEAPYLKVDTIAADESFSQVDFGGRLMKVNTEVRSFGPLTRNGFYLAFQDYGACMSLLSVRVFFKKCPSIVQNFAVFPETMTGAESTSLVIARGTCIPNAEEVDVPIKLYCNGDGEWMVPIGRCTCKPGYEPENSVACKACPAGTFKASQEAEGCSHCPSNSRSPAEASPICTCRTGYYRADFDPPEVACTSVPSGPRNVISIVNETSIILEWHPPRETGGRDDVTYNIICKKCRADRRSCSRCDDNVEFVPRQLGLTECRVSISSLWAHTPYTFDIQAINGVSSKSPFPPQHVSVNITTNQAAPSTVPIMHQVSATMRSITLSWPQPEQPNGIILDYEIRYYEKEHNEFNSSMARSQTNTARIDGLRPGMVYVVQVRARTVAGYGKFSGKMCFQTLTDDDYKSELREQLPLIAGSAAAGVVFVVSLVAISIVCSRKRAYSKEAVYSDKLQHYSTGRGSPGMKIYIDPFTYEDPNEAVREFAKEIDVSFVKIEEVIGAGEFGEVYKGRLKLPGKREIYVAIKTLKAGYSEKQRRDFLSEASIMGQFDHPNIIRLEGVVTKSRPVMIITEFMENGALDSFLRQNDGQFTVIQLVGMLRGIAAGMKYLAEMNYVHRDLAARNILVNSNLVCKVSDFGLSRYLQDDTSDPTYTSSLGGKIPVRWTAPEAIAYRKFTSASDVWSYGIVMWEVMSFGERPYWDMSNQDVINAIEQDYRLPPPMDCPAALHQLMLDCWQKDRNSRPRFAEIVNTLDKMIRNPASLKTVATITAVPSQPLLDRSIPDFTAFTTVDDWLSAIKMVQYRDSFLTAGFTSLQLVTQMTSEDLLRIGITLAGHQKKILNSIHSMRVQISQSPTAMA
EPHB2, sequence (P29323 whole entry, looked up): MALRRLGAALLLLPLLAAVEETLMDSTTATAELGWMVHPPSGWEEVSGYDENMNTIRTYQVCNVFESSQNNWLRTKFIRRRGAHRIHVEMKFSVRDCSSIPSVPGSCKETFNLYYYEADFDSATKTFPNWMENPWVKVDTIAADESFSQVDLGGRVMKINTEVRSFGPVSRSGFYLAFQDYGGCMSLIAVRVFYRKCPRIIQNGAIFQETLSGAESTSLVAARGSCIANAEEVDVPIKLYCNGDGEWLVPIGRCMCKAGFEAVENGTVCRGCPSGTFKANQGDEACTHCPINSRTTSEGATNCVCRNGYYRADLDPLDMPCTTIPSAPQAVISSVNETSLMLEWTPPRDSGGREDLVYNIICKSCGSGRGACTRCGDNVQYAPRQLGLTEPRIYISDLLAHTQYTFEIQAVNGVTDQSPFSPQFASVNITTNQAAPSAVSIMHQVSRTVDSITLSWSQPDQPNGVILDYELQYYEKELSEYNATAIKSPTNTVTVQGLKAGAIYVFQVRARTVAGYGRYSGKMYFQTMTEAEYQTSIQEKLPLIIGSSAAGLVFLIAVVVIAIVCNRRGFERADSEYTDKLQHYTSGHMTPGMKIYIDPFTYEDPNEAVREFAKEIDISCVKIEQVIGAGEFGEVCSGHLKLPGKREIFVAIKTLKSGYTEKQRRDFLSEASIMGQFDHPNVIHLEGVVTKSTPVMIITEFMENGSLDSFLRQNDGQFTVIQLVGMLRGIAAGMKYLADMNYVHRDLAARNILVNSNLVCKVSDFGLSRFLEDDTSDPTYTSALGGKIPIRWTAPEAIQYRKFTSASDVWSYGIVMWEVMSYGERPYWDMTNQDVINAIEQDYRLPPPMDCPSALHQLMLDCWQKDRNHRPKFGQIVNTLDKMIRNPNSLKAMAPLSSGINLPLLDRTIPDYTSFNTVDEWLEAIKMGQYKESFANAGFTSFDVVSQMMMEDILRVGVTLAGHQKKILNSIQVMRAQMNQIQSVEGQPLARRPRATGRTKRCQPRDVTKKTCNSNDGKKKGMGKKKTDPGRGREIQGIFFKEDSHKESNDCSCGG

Sequence | phosphorylation enrichment (AncSZ) | phosphorylation enrichment (EPHB1) | phosphorylation enrichment (EPHB2) | phosphorylation enrichment (FGFR1) | phosphorylation enrichment (FGFR3) | phosphorylation enrichment (Fer (mouse)) | phosphorylation enrichment (Fes) | phosphorylation enrichment (Fyn) | phosphorylation enrichment (Hck) | phosphorylation enrichment (Jak2) | phosphorylation enrichment (MERTK) | phosphorylation enrichment (c-Abl (mouse)) | phosphorylation enrichment (c-Src) | SH2 binding enrichment (Grb2 SH2) | SH2 binding enrichment (SHP2-C SH2) | SH2 binding enrichment (c-Src SH2)
KMKGEYFRFLA [YWHAG_Y130_D129E_YF] | 0.791 | 0.678 | 0.567 | 3.77 | 2.58 | 0.7 | 0.93 | 1.75 | 0.783 | 2.04 | 0.598 | 1.4 | 2.76 | 1.63 | 1.3 | 1.24
KMMGRYEMFAR [UPB1_Y362_T359M_YF] | 0.538 | 0.327 | 0.393 | 0.363 | 0.445 | 0.298 | 0.599 | 0.368 | 0.402 | 0.453 | 0.393 | 0.464 | 0.34 | 1.12 | 0.973 | 1.65
KNEVFYQCPDQ [FBXO3_Y223] | 3.2 | 1.04 | 2.03 | 1.26 | 1.49 | 6.47 | 1.55 | 1.03 | 1.69 | 0.941 | 3.49 | 7.94 | 0.985 | 0.783 | 0.523 | 0.526
KNKELYSDLFD [PDE10A_Y300] | 1.13 | 1.03 | 0.794 | 0.556 | 0.66 | 1.84 | 1.14 | 0.68 | 0.958 | 0.898 | 1.35 | 0.918 | 0.6 | 1.04 | 0.715 | 1.15
KQELVYTNKKL [OPTN_Y356] | 0.69 | 0.496 | 0.561 | 0.47 | 0.474 | 0.571 | 0.675 | 0.441 | 0.734 | 0.791 | 0.594 | 0.759 | 0.836 | 0.781 | 0.803 | 0.4
KRIETYFSKNY [PLP1_Y50_L46R] | 0.658 | 0.427 | 0.365 | 0.436 | 0.504 | 0.377 | 0.748 | 0.374 | 0.484 | 0.661 | 0.392 | 0.532 | 0.384 | 0.787 | 0.71 | 0.502
KRLKDYLTVLQ [USP25_Y425] | 0.679 | 0.422 | 0.412 | 0.506 | 0.522 | 0.431 | 0.664 | 0.349 | 0.322 | 0.625 | 0.352 | 0.783 | 0.403 | 0.933 | 0.573 | 0.569
KSLFHYRQYSA [CPS1_Y1491] | 0.778 | 0.527 | 0.602 | 0.531 | 0.646 | 0.408 | 0.808 | 0.54 | 0.512 | 0.686 | 0.469 | 0.567 | 0.493 | 0.749 | 0.521 | 0.379
KSSDVYVSYDY [SORL1_Y136] | 1.16 | 1.38 | 1.92 | 4.12 | 2.64 | 0.914 | 1.07 | 5.35 | 2.18 | 1.08 | 1.97 | 0.712 | 4.15 | 0.729 | 0.768 | 1.18
KTTSGYAGGLS [KRT8_Y419] | 0.404 | 0.332 | 0.304 | 0.398 | 0.376 | 0.422 | 0.496 | 0.33 | 0.289 | 0.373 | 0.3 | 0.456 | 0.369 | 1.32 | 0.617 | 0.431
KVALLYKPYFY [POLE_Y100_P99L] | 0.987 | 0.605 | 0.483 | 0.483 | 0.693 | 0.474 | 1.11 | 0.457 | 0.514 | 0.977 | 0.473 | 0.866 | 0.737 | 1.43 | 1.44 | 1.36
KVGPGYLGSGG [RET_Y826] | 0.438 | 0.287 | 0.377 | 0.334 | 0.392 | 0.365 | 0.451 | 0.42 | 0.315 | 0.457 | 0.423 | 0.399 | 0.368 | 0.685 | 0.583 | 0.44
KYLENYYDLEK [MMP3_Y41_K45E] | 1.64 | 9.73 | 4.75 | 8.94 | 6.66 | 0.664 | 1.3 | 5.37 | 1.83 | 1.2 | 0.819 | 0.818 | 2.2 | 0.702 | 0.736 | 1.08
LAARFYNWVSF [FLT4_Y1231_YF] | 1.44 | 0.69 | 0.605 | 1.27 | 1.56 | 2.55 | 1.55 | 0.51 | 0.476 | 1.1 | 1.02 | 0.988 | 0.82 | 1.26 | 1.61 | 1.25
LDLSYYPTSSS [EMD_Y182] | 2.17 | 1.21 | 1.18 | 3.94 | 3.28 | 0.835 | 1.81 | 0.762 | 0.947 | 5.02 | 0.955 | 1.41 | 0.72 | 0.853 | 0.66 | 1.24
LDMSQYFRLFN [CPT2_Y217] | 1.1 | 0.539 | 0.531 | 2.15 | 1.62 | 0.613 | 1.55 | 0.959 | 0.885 | 4.15 | 0.755 | 0.92 | 0.601 | 1.23 | 2.02 | 0.669
LDTIQYSKHPP [SQSTM1_Y433] | 1.01 | 0.778 | 0.998 | 0.6 | 1.08 | 0.583 | 1.73 | 0.917 | 0.695 | 1.07 | 0.792 | 0.75 | 0.649 | 0.652 | 0.771 | 0.408

Sequence | phosphorylation enrichment (AncSZ) | phosphorylation enrichment (EPHB1) | phosphorylation enrichment (EPHB2) | phosphorylation enrichment (FGFR1) | phosphorylation enrichment (FGFR3) | phosphorylation enrichment (Fer (mouse)) | phosphorylation enrichment (Fes) | phosphorylation enrichment (Fyn) | phosphorylation enrichment (Hck) | phosphorylation enrichment (Jak2) | phosphorylation enrichment (MERTK) | phosphorylation enrichment (c-Abl (mouse)) | phosphorylation enrichment (c-Src) | SH2 binding enrichment (Grb2 SH2) | SH2 binding enrichment (SHP2-C SH2) | SH2 binding enrichment (c-Src SH2)
LEEFQYIGELQ [MSH2_Y856_S860L] | 1.92 | 0.892 | 0.788 | 0.793 | 1.08 | 0.656 | 2.04 | 0.718 | 0.908 | 2.39 | 0.716 | 1.33 | 0.738 | 1.16 | 0.986 | 0.591
LEFAKYGSLRG [RET_Y809_V804L_YF] | 0.567 | 0.37 | 0.792 | 0.316 | 0.459 | 0.373 | 0.644 | 0.398 | 0.567 | 0.593 | 0.388 | 0.454 | 0.43 | 0.907 | 0.73 | 0.505
LENSTYQFICV [CRB1_Y760_R764C_YF] | 2.12 | 4.2 | 2.39 | 3.43 | 3.21 | 8.22 | 1.79 | 2.23 | 3.46 | 1.37 | 2.49 | 1.12 | 1.84 | 0.9 | 0.739 | 0.457
LGRTVYADCLA [ABCA4_Y2063_L2060R] | 0.983 | 1.26 | 1.61 | 0.918 | 1.37 | 1.4 | 2.65 | 0.902 | 0.989 | 1.76 | 0.939 | 1.39 | 0.903 | 1.15 | 3.39 | 1.71
LHRAHYDLCHT [AHSG_Y314_R317C] | 0.814 | 0.572 | 0.542 | 0.513 | 0.648 | 0.516 | 1.12 | 0.401 | 0.47 | 0.88 | 0.435 | 0.777 | 0.495 | 1.13 | 0.935 | 2.25
LIDGFYRLTED [JAK2_Y373_A377E_YF] | 1.31 | 0.586 | 0.89 | 0.537 | 0.747 | 0.613 | 1.54 | 0.66 | 0.552 | 1.11 | 0.549 | 0.974 | 0.895 | 0.699 | 0.678 | 0.661
LIFTNYEAGKD [GSTP1_Y112_YF] | 1.21 | 0.703 | 0.571 | 0.824 | 0.646 | 0.453 | 1.39 | 0.414 | 0.582 | 1.26 | 0.675 | 1.24 | 0.998 | 0.848 | 0.55 | 0.499
LIFVSYDDWDY [GRIN2A_Y281_S278F] | 2.07 | 1.8 | 2.52 | 0.95 | 1.77 | 4.89 | 2.75 | 0.966 | 0.774 | 2.22 | 0.618 | 1.49 | 0.914 | 1.38 | 1.38 | 1.16
LITLVYGCSRQ [TMPRSS6_Y290_S288L] | 1.7 | 0.644 | 0.876 | 0.599 | 0.863 | 0.848 | 1.74 | 0.578 | 0.721 | 1.86 | 0.851 | 0.978 | 1.08 | 1.29 | 1.04 | 0.54
LKLIQYHLTQQ [AKAP4_Y554] | 0.902 | 0.88 | 0.774 | 0.932 | 0.879 | 0.711 | 1.34 | 0.5 | 0.534 | 1.28 | 1.15 | 0.646 | 0.599 | 1.03 | 1.31 | 0.762
LLIMEYAKYGS [RET_Y806_V804M] | 1.39 | 1.4 | 1.02 | 0.999 | 1.19 | 0.903 | 1.81 | 1.03 | 0.64 | 2.18 | 0.6 | 1.51 | 0.973 | 1.41 | 1.04 | 1.11
LLPNAYIFVVQ [L1CAM_Y418_A415P_YF] | 1.79 | 0.849 | 1.06 | 0.868 | 1.07 | 0.731 | 1.66 | 0.634 | 0.73 | 1.5 | 0.561 | 1.06 | 0.481 | 0.65 | 0.508 | 0.47
LLVVLYKFRCF [PSEN1_Y154_Y159F_YF] | 1.39 | 0.685 | 0.773 | 0.568 | 1.56 | 0.718 | 1.97 | 0.51 | 0.622 | 1.85 | 1.03 | 1.77 | 0.937 | 1.98 | 1.92 | 1.85
LNCDRYSAGLL [PDE6A_Y275_V277A] | 0.919 | 0.487 | 0.481 | 0.396 | 0.612 | 0.432 | 0.834 | 0.512 | 0.39 | 0.87 | 0.378 | 0.673 | 0.448 | 0.755 | 0.595 | 0.419
LNRAGYCDALE [MTUS1_Y151_C148R] | 1.06 | 0.684 | 0.988 | 0.686 | 0.994 | 0.571 | 1.12 | 0.537 | 0.424 | 1 | 0.484 | 0.749 | 0.591 | 0.773 | 0.773 | 0.727
LPVHFYSHVEH [PYGM_Y204_G205S] | 1.13 | 1.05 | 0.878 | 0.651 | 1.29 | 1.26 | 1.63 | 0.689 | 0.852 | 1.71 | 0.859 | 1.2 | 1.21 | 0.964 | 8.86 | 22.2
